# Test results from article PMC8523169.
# Molecular target: full-length MukB (wild type) (E. coli) (UniProt P22523)
# Assay: fluorescence correlation spectroscopy (FCS); competition: MatP-Cy3B fixed at 1 nM, MukB at 400 nM; ParC variants at 10-fold, unlabeled MatP at 50-fold, DNA at 2.5-fold molar excess
# Chain of full-length MukB (wild type) (E. coli) (P22523 whole entry): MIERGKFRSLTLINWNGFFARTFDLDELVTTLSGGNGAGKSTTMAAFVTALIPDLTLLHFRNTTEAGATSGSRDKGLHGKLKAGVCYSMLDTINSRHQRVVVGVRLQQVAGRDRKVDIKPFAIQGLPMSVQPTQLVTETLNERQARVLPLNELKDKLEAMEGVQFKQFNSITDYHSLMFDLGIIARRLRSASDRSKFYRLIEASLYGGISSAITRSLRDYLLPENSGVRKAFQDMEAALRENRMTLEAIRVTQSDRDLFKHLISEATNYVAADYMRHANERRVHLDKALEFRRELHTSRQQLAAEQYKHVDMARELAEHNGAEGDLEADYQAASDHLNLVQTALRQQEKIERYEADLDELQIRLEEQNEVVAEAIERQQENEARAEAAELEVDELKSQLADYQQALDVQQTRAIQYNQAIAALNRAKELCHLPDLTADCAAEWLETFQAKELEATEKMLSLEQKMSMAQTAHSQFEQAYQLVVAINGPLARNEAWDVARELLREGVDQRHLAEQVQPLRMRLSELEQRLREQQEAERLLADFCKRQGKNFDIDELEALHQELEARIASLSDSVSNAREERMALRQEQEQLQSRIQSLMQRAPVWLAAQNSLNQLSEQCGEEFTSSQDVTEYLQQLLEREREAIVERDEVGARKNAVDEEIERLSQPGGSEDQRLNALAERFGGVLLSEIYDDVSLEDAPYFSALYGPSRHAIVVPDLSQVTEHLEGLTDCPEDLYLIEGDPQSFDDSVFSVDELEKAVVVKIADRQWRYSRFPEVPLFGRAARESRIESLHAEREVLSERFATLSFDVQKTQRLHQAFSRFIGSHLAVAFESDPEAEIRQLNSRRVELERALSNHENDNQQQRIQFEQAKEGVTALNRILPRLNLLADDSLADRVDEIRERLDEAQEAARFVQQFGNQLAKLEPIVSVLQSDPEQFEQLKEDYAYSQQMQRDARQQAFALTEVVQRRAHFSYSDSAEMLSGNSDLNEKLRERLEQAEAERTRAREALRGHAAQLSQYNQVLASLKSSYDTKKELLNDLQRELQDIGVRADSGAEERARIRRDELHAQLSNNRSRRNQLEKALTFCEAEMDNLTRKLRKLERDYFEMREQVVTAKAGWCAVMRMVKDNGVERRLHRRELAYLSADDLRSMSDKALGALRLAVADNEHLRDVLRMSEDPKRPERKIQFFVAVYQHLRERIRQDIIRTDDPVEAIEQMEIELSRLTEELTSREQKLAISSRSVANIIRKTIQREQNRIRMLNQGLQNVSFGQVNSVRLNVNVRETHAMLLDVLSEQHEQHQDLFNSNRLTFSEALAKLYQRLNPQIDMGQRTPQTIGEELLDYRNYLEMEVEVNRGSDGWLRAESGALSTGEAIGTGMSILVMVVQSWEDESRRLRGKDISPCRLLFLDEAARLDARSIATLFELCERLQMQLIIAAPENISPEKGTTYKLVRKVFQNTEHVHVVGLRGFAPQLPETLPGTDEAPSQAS
# Chain of MBP-ParC^CTD (ParC C-terminal domain with N-terminal MBP fusion) (domain or fragment) (P0AFI2 whole entry, the tested form may be a part): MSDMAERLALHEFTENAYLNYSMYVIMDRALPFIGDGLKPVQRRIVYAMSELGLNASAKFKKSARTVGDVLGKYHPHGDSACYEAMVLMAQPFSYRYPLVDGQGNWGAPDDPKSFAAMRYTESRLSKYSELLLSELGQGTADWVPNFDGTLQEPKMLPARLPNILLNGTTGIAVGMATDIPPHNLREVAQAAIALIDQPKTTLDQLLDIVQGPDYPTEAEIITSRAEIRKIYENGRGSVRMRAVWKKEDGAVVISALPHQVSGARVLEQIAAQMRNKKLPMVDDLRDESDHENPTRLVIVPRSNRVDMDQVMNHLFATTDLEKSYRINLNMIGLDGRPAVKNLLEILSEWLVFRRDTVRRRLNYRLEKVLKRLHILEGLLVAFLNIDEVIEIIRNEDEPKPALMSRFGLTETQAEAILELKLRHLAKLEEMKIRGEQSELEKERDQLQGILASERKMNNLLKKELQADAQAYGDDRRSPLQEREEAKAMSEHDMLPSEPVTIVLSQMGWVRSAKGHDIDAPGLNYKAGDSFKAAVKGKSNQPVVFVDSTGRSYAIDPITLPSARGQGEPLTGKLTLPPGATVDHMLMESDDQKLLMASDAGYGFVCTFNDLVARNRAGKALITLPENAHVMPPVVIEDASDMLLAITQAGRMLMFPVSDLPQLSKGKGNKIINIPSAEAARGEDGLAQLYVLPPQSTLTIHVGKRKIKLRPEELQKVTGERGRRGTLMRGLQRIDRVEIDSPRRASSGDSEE
substance,measurement,value
MBP-ParC^CTD (ParC C-terminal domain with N-terminal MBP fusion) (domain or fragment),fold decrease in MatP-Cy3B binding to MukB at 10-fold excess of competitor,3 fold
